Assay results reported in paper PMC11261447.

Molecular target: HA-OGT-D4 (D-box mutant R351A/L354A) (UniProt O15294)

decrease in ubiquitination level of HA-OGT-D4 against HA-OGT-WT in 293T cells transfected with Myc-Ub and Flag-CDC20 (anti-HA precipitates blotted with anti-Myc): 50%
Substance: Flag-CDC20 (from UniProt Q12834 1-499) (natural protein)
